What all share (settings): […]) or PBS pH 8.0, 1 mM TCEP ([…]
Data set [1] has as its system T1, YdaS (Escherichia coli O157:H7 EDL933 (CP-933P cryptic prophage)), ORF:56fdd3d8.
T1 sequence: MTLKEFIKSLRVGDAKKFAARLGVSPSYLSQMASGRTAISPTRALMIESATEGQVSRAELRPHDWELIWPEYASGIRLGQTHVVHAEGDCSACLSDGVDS
Description: EMSA. On the technique in general: Mobility shift assays separate free from complexed probe on a gel.

The subject of data set [2] is T2, PaaR2 (Escherichia coli O157:H7 EDL933 (CP-933P cryptic prophage)), ORF:dc76e4f2.
T2 sequence: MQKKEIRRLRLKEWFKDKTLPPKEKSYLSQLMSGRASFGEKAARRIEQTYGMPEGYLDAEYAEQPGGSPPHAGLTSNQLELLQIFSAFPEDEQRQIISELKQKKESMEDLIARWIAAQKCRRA
Description: EMSA.

Data set [3] relates to T1, YdaS (Escherichia coli O157:H7 EDL933 (CP-933P cryptic prophage)), ORF:56fdd3d8. The data set can be described thus: DNase I footprinting.
The subject of data set [4] is T2, PaaR2 (Escherichia coli O157:H7 EDL933 (CP-933P cryptic prophage)), ORF:dc76e4f2. Description: DNase I footprinting.
The test system of data set [5] is PaaR2 (Escherichia coli O157:H7 EDL933 (CP-933P cryptic prophage)). Description: EMSA.
In data set [6] the test system is YdaS (Escherichia coli O157:H7 EDL933 (CP-933P cryptic prophage)). Description: EMSA.

With “ACCTTCCTCGGTTTAGTGTTTTTTTGCGAGTTTAGTGTTTAATAAACCATTAAGTCAAGTATTTGCTTGTTTAGTGATTACTAAAGATAATTACCAC (double strand)”, the binding in data set [1] and in data set [2] was greater than 1 µM each time.

As for “GCTTTTGCGCAGAAATTTCGCGATATGGCAGGACAAGACGTAAAATTGACAGCAATTTTATTCATATAAAGAATGAATCGCAGTCAAGGTATTCATC (double strand) [random intergenic region (Neg)]”, the binding entry in data set [1] and in data set [2] was “no binding” each time.

In the case of “TCTTTAAACCACTCCTTGAGACGTAAACGGCGAATTTCTTTTTTTTGCATGTGGTAATTATCTTTAGTAATCACTAAACAAGCAAATACTTGACTTAATGGTTTATTAAACACTAAACTCGCAAAAAAACACTAAACCGAGGAAGGTATGACATTAAAAGAGTTTATTAAATCATTAAGGGTTGGTGAT (double strand) [footprint fragment, paaR2-ydaS promoter/operator region]”, the binding result in data set [3] and in data set [4] was “binds” each time.

Take “full-length promoter/operator region, paaR2-ydaS intergenic region (EMSA)”: the binding in data set [5] and in data set [6] was greater than 1 µM each time.
